The source of these data is US20240034813A1 (Janssen / Centocor, published 2024).

Assay [1] concerns the target T1, recombinant cMet/HGFR with c-terminal His-tag, Cy5-labeled (UniProt P08581 25-932, limits assumed, Cy5 label (reacted with Cy5 Mono NHS Ester; sites not stated)).
T1 construct: Commercial protein; also called Cy5-c-MET; Cy5-labeled c-MET antigen; not shown: C-terminal His-tag
In words: competitive TR-FRET (Eu-amivantamab/Cy5-c-MET), EC50 ratio vs Reference Material; Ex. 11 drug product, 3 months at 40 C. The source says: (§1) In this procedure, varying concentrations of unlabeled bispecific EGFR-cMet antibody sample compete with donor fluorophore (Europium (Eu) chelate) labeled bispecific EGFR-cMet antibody for binding to an acceptor fluorophore (Cy5)-labeled c-MET antigen. Excitation of the donor fluorophore results in a transfer of energy to the bound acceptor fluorophore (FRET process). The resultant FRET is detected by emission of light at 665 nm using a microplate reader capable of measuring time-resolved fluorescence. Sample dose response curves are compared to the Reference Material (RM).
(§2) c-MET Binding Materials and Methods. Certified commercial cMet, a recombinant cMet/HGFR with c-terminal His-tag is reacted with certified commercial Cy5 Mono NHS Ester to produce Cy5-labeled c-MET. Validated bispecific EGFR-cMet antibody is reacted with certified commercial Europium (Eu) chelate to produce Eu labeled bispecific EGFR-cMet antibody. […] Fluorescence is then measured by spectrophotometry at 665 nm, plotted against antibody concentration and analyzed by a four-parameter logistic model. The antibody concentration required to obtain half of the maximum fluorescence response (EC50) is determined for RM, assay control and samples. The potencies of assay control and samples are calculated based on the ratio of the sample (or control) and RM EC50 values and reported as a percentage activity relative to the RM.
(In general: In TR-FRET formats the signal depends on donor and acceptor labels being close together.)

Assay [2] deals with T2, recombinant human EGFR/ErbB1/HER1 with C-terminal His tag, Cy5-labeled (human, UniProt P00533 25-645, Cy5 label (reacted with Cy5 Mono NHS Ester; sites not stated)).
T2 construct: Commercial protein; also called Cy5-EGFR; Cy5-labeled EGFR antigen; not shown: C-terminal His tag
In words: competitive TR-FRET (Eu-amivantamab/Cy5-EGFR), EC50 ratio vs Reference Material; Ex. 2 Formulation 3 (acetate), T0, 40 C table.
From the text: (§3) In this procedure, varying concentrations of unlabeled bispecific EGFR-cMet antibody sample compete with donor fluorophore (Europium (Eu) chelate) labeled bispecific EGFR-cMet antibody for binding to an acceptor fluorophore (Cy5)-labeled EGFR antigen. Excitation of the donor fluorophore results in a transfer of energy to the bound acceptor fluorophore (FRET process). The resultant FRET is detected by emission of light at 665 nm using a microplate reader capable of measuring time-resolved fluorescence. Sample dose response curves are compared to the RM.
as §2, with “EGFR” for “c-MET”, “EGFR,” for “cMet,”, “human EGFR/ErbB1/HER1” for “cMet/HGFR”, “C-terminal His tag” for “c-terminal His-tag”, “EGFR.” for “c-MET.”, “Eu-labeled” for “Eu labeled”

Assay [3] addresses T2, recombinant human EGFR/ErbB1/HER1 with …. Briefly: competitive TR-FRET (Eu-amivantamab/Cy5-EGFR), EC50 ratio vs Reference Material; Ex. 12 drug product with rHuPH20, 3 months at 5 C.
From the text: as §3
as §2, with “EGFR” for “c-MET”, “EGFR,” for “cMet,”, “human EGFR/ErbB1/HER1” for “cMet/HGFR”, “C-terminal His tag” for “c-terminal His-tag”, “EGFR.” for “c-MET.”, “Eu-labeled” for “Eu labeled”

In assay [4] the target is T1, recombinant cMet/HGFR with c-terminal …. In words: competitive TR-FRET (Eu-amivantamab/Cy5-c-MET), EC50 ratio vs Reference Material; Ex. 12 drug product with rHuPH20, 3 months at 25 C.
From the text: as §1, §2

Assay [5] has the same target. Briefly: competitive TR-FRET (Eu-amivantamab/Cy5-c-MET), EC50 ratio vs Reference Material; Ex. 12 drug product with rHuPH20, 3 months at 40 C.
From the text: as §1, §2

The target is the same in assay [6]. In words: competitive TR-FRET (Eu-amivantamab/Cy5-c-MET), EC50 ratio vs Reference Material; Ex. 2 Formulation 1 (10 mM histidine), 3 months at 5 C.
From the text: as §1, §2

The target is the same in assay [7]. In words: competitive TR-FRET (Eu-amivantamab/Cy5-c-MET), EC50 ratio vs Reference Material; Ex. 12 drug product with rHuPH20, 0 months, 25 C table.
From the text: as §1, §2

Assay [8] shares this target. Briefly: competitive TR-FRET (Eu-amivantamab/Cy5-c-MET), EC50 ratio vs Reference Material; Ex. 2 Formulation 2 (50 mM histidine), 3 months at 40 C.
From the text: as §1, §2

B1: amivantamab (bispecific antibody, human IgG1, kappa)
heavy 1: not shown
light 1: not shown
heavy 2: not shown
light 2: DIQMTQSPSSVSASVGDRVTITCRASQGISNWLAWFQHKPGKAPKLLIYAASSLLSGVPSRFSGSGSGTDFTLTISSLQPEDFATYYCQQANSFPITFGQGTRLEIKRTVAAPSVFIFPPSDEQLKSGTASVVCLLNNFYPREAKVQWKVDNALQSGNSQESVTEQDSKDSTYSLSSTLTLSKADYEKHKVYACEVTHQGLSSPVTKSFNRGEC
notes: The samples tested were high concentration (160 mg/mL) formulations, fresh or stored or stressed; also called JNJ-61186372; bispecific EGFR-cMet antibody
In the case of B1, the “cMET Binding activity relative to Reference Material (%)” value in assay [1] was 78%; in assay [4], 81%; in assay [5], 68%; in assay [7], 91%. Moreover, the “EGFR Binding % activity relative to RM” value in assay [2] was determined as 103%. The “EGFR Binding activity relative to Reference Material (%)” value in assay [3] came to 82%. The “cMET Binding % activity relative to RM” value in assay [6] is 100%; in assay [8], 77%.
